Measured values: patent publication US20260242478A1 (published 2026)
Where no end group is shown, it is not given here.

How the values were obtained:
[1] = molecular target: T1, anti-CD28 scFv (VH - linker 1 - VL) (biotinylated (site not given)); assay: phage ELISA as above; wells pre-incubated with soluble CD28 as competitor;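 further: crude clonal phage supernatants tested, with bound phage detected by HRP-conjugated anti-M13 antibody, and reference wells given blocking buffer without CD28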
T1 construct: Biotinylated scFv captured on neutravidin coated plates in the panning ELISA

[2] = molecular target: T1, anti-CD28 scFv (VH - linker 1 - VL); assay: phage ELISA; biotinylated anti-CD28 scFv on neutravidin plate, clonal phage supernatant, anti-M13 HRP
Method: Clonal phage were harvested as crude supernatants and screened via standard enzyme linked immunosorbent assays (ELISAs). […] Prior to the addition of clonal phage, wells were incubated with blocking buffer and CD28 soluble protein or blocking buffer alone. Without washing or aspirating, clonal phage supernatants were then added to the wells and incubated for a short time. Wells were then washed followed by detection of bound phage using a horse radish peroxidase conjugated anti-M13 antibody.

[3] = molecular target: T2, Anti-CD28 Fab (SEQ ID NOs: 696, 697); assay: phage binding ELISA, biotinylated Fab on neutravidin plate, anti-M13 HRP detection;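 further: crude clonal phage supernatants added to Fab-coated wells pretreated with CD28 antigen or with blocking buffer only, bound phage measured after washing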
T2 construct: In the phage ELISA the Fab was biotinylated and captured on neutravidin coated plates
Method: (§1) After panning, phage infected bacteria were plated out and colonies picked into 96 well blocks. Clonal phage was then amplified and separated from bacterial cells via centrifugation.
(§2) Clonal phage were harvested as crude supematants and screened via standard ELISAs. […] Prior to the addition of clonal phage, wells were incubated with blocking buffer and CD28 antigen or blocking buffer alone. Without washing or aspirating, clonal phage supematants were then added to the wells and incubated for a short time. Wells were then washed followed by detection of bound phage using a horse radish conjugated anti-M13 antibody. Clonal phage of interest were then sent for sequence analysis.

[4] = molecular target: T2, Anti-CD28 Fab (SEQ ID NOs: 696, 697); assay: phage binding ELISA on plate-captured Fab, competitor CD28 antigen
Method: as §1, §2

T2 sequence (VH, as listed by the source, chain 1 of 2): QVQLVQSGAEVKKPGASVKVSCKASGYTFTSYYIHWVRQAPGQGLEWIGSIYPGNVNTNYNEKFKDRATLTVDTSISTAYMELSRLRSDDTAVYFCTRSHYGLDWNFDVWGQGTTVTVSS
T2 sequence (VL, as listed by the source, chain 2 of 2): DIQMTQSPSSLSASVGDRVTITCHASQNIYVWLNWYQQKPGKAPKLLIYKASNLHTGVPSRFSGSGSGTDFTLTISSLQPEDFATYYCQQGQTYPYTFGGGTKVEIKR
T1 sequence (scFv, as listed by the source): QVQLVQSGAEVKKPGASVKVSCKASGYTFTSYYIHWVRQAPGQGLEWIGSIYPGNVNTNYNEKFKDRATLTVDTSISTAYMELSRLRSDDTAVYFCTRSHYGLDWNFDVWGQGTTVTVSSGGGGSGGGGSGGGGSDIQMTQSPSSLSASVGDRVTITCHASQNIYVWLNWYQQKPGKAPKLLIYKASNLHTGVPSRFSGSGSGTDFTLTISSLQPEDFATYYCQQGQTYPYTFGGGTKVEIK

B1: Phage-95 (peptide)
peptide: MDWCPRFLWSECFN
modifications: cysteine pairing not given here; also: displayed on phage as fusion to pIII, linker not given here
notes: also called position columns give F at position 7)
CD28 scFv signal in presence of CD28 [1]: 0.227 | CD28 scFv signal [2]: 2.57

B2: Phage-465 (peptide)
peptide: DCWWMFESYPGRCI
modifications: cysteine pairing not given here; also: displayed on phage, fused to pIII
notes: Clonal phage supernatant; not shown: bacteriophage pIII to which the peptide is fused for display
Anti-CD28 Fab (SEQ ID NOs: 696, 697) signal [3]: 1.65 | Anti-CD28 Fab signal in the presence of CD28 [4]: 0.07

B3: Phage-460 (peptide)
peptide: WCWDYKLWVPTQCP
modifications: cysteine pairing not given here; also: displayed on phage, fused to pIII
notes: as for B2
Anti-CD28 Fab (SEQ ID NOs: 696, 697) signal [3]: 2.27 | Anti-CD28 Fab signal in the presence of CD28 [4]: 0.14

B4: Phage-94 (peptide)
peptide: MDWCPRDLWSLCFY
modifications: cysteine pairing not given here; also: displayed on phage as fusion to pIII, linker not given here
CD28 scFv signal in presence of CD28 [1]: 0.246 | CD28 scFv signal [2]: 2.57

B5: Phage-468 (peptide)
peptide: YWYCSPSIVRCVLV
modifications: cysteine pairing not given here; also: displayed on phage, fused to pIII
notes: as for B2
Anti-CD28 Fab (SEQ ID NOs: 696, 697) signal [3]: 1.51 | Anti-CD28 Fab signal in the presence of CD28 [4]: 0.09

B6: Phage-115 (peptide)
peptide: MDWCPRYLWHECFN
modifications: cysteine pairing not given here; also: phage-displayed pIII fusion, pIII and linker not given here
CD28 scFv signal in presence of CD28 [1]: 0.421 | CD28 scFv signal [2]: 2.49

B7: Phage-110 (peptide)
peptide: MDWCPRYLWDECFN
modifications: cysteine pairing not given here; also: phage-displayed pIII fusion, pIII and linker not given here
CD28 scFv signal in presence of CD28 [1]: 0.283 | CD28 scFv signal [2]: 2.53

B8: Phage-100 (peptide)
peptide: MDWCPRYLWTECFN
modifications: cysteine pairing not given here; also: phage-displayed pIII fusion, pIII and linker not given here
CD28 scFv signal in presence of CD28 [1]: 0.549 | CD28 scFv signal [2]: 2.56

B9: Phage-97 (peptide)
peptide: MDWCPKDLWDYCFA
modifications: cysteine pairing not given here; also: displayed on phage as fusion to pIII, linker not given here
CD28 scFv signal in presence of CD28 [1]: 0.165 | CD28 scFv signal [2]: 2.57

B10: Phage-470 (peptide)
peptide: WICDKSGSIMLCRA
notes: as for B2
Anti-CD28 Fab (SEQ ID NOs: 696, 697) signal [3]: 0.91 | Anti-CD28 Fab signal in the presence of CD28 [4]: 0.06

B11: Phage-463 (peptide)
peptide: YCAGHSPINIGKCL
modifications: cysteine pairing not given here; also: displayed on phage, fused to pIII
notes: as for B2
Anti-CD28 Fab (SEQ ID NOs: 696, 697) signal [3]: 1.49 | Anti-CD28 Fab signal in the presence of CD28 [4]: 0.06

B12: Phage-93 (peptide)
peptide: MDWCPRYLWTVCFS
modifications: cysteine pairing not given here; also: displayed on phage as fusion to pIII, linker not given here
CD28 scFv signal in presence of CD28 [1]: 0.372 | CD28 scFv signal [2]: 2.58

B13: Phage-464 (peptide)
peptide: WCWDYKLWVPMTCP
modifications: cysteine pairing not given here; also: displayed on phage, fused to pIII
notes: as for B2
Anti-CD28 Fab (SEQ ID NOs: 696, 697) signal [3]: 2.51 | Anti-CD28 Fab signal in the presence of CD28 [4]: 0.11

B14: Phage-99 (peptide)
peptide: MDWCPRYLWNMCFH
modifications: cysteine pairing not given here; also: displayed on phage as fusion to pIII, linker not given here
CD28 scFv signal in presence of CD28 [1]: 0.404 | CD28 scFv signal [2]: 2.56

B15: Phage-98 (peptide)
peptide: MDWCPKYLWDVCFN
modifications: cysteine pairing not given here; also: displayed on phage as fusion to pIII, linker not given here
CD28 scFv signal in presence of CD28 [1]: 0.422 | CD28 scFv signal [2]: 2.57

B16: Phage-461 (peptide)
peptide: WCWDYREWVPMTCP
modifications: cysteine pairing not given here; also: displayed on phage, fused to pIII
notes: as for B2
Anti-CD28 Fab (SEQ ID NOs: 696, 697) signal [3]: 2.3 | Anti-CD28 Fab signal in the presence of CD28 [4]: 0.08

B17: Phage-467 (peptide)
peptide: WCWYYREWVPMTCP
modifications: cysteine pairing not given here; also: displayed on phage, fused to pIII
notes: as for B2
Anti-CD28 Fab (SEQ ID NOs: 696, 697) signal [3]: 1.85 | Anti-CD28 Fab signal in the presence of CD28 [4]: 0.07

B18: Phage-471 (peptide)
peptide: SCAAGASYAWPYCL
notes: as for B2
Anti-CD28 Fab (SEQ ID NOs: 696, 697) signal [3]: 1.49 | Anti-CD28 Fab signal in the presence of CD28 [4]: 0.05

B19: Phage-458 (peptide)
peptide: ACDTYFAGMINECF
modifications: cysteine pairing not given here; also: displayed on phage, fused to pIII
notes: as for B2
Anti-CD28 Fab (SEQ ID NOs: 696, 697) signal [3]: 0.92 | Anti-CD28 Fab signal in the presence of CD28 [4]: 0.1

B20: Phage-459 (peptide)
peptide: GCQYPWAFDAMSCP
modifications: cysteine pairing not given here; also: displayed on phage, fused to pIII
notes: as for B2
Anti-CD28 Fab (SEQ ID NOs: 696, 697) signal [3]: 2.38 | Anti-CD28 Fab signal in the presence of CD28 [4]: 0.07

B21: Phage-462 (peptide)
peptide: ECHWSMWAVGHACF
modifications: cysteine pairing not given here; also: displayed on phage, fused to pIII
notes: as for B2
Anti-CD28 Fab (SEQ ID NOs: 696, 697) signal [3]: 1.77 | Anti-CD28 Fab signal in the presence of CD28 [4]: 0.07

B22: Phage-96 (peptide)
peptide: MDWCPRTLWAYCFN
modifications: cysteine pairing not given here; also: displayed on phage as fusion to pIII, linker not given here
CD28 scFv signal in presence of CD28 [1]: 0.584 | CD28 scFv signal [2]: 2.57
